Measurements: PMC6449355, “A TetR-family transcription factor regulates fatty acid metabolism in the archaeal model organism Sulfolobus acidocaldarius” (Nature Communications, 2019)
Substitutions are numbered along the chain they refer to. Names and notes keep the numbering of the source.

Key:
FadRSa [1] = target: T1, FadRSa (Sulfolobus acidocaldarius, UniProt Q4J9S1); assay: EMSA, release of FadRSa from operator DNA; type: binding; settings: 154-bp Saci_1106 operator probe, pH 8.0, 37 °C; allosteric inducer
T1 construct: gene Saci_1107; full-length, recombinant in E. coli Rosetta (DE3), His-tagged (N-terminal from pET45b or C-terminal from pET24a; mutants C-terminal), tag kept; homodimer, 44 kDa

FadRSa [2] = target: T2, FadRSa (Sulfolobus acidocaldarius, UniProt Q4J9S1, M101A); assay: EMSA, ligand response of mutant (fraction of bound DNA); type: binding; settings: pH 8.0, 37 °C; allosteric inducer
T2 construct: gene Saci_1107; full-length, recombinant in E. coli Rosetta (DE3), His-tagged (N-terminal from pET45b or C-terminal from pET24a; mutants C-terminal), tag kept; homodimer, 44 kDa

[3] = target: T3, FadRSa (Sulfolobus acidocaldarius) (UniProt Q4J9S1); assay: DNase I footprinting; settings: EMSA/DNase I: 20 mM Tris-HCl pH 8.0, 1 mM MgCl2, 0.1 mM DTT, 12.5% glycerol, 50 mM NaCl, 0.4 mM EDTA, 37 C; EMSA with about 0.1 nM 32P-DNA and excess …
T3 sequence: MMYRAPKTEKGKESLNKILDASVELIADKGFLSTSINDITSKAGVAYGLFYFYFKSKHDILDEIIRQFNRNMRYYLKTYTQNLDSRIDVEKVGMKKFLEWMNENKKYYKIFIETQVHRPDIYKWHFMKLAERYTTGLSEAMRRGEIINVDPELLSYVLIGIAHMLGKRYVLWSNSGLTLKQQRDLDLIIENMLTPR

[4] = target: T3, FadRSa (Sulfolobus acidocaldarius); assay: EMSA; settings: EMSA/DNase I: 20 mM Tris-HCl pH 8.0, 1 mM MgCl2, 0.1 mM DTT, 12.5% glycerol, 50 mM NaCl, 0.4 mM EDTA, 37 C; EMSA with about 0.1 nM 32P-DNA and excess …
[5] = target: T3, FadRSa (Sulfolobus acidocaldarius); assay: Cu-phenanthroline footprinting; settings: EMSA/DNase I: 20 mM Tris-HCl pH 8.0, 1 mM MgCl2, 0.1 mM DTT, 12.5% glycerol, 50 mM NaCl, 0.4 mM EDTA, 37 C; EMSA with about 0.1 nM 32P-DNA and excess …
[6] = target: T3, FadRSa (Sulfolobus acidocaldarius); assay: footprinting; settings: EMSA/DNase I: 20 mM Tris-HCl pH 8.0, 1 mM MgCl2, 0.1 mM DTT, 12.5% glycerol, 50 mM NaCl, 0.4 mM EDTA, 37 C; EMSA with about 0.1 nM 32P-DNA and excess …
FadRSa [7] = target: T4, FadRSa (Sulfolobus acidocaldarius, UniProt Q4J9S1 1-196); assay: SEC; 40:1 protein:DNA; complex B2, 179 kDa, two dimers; EMSA/DNase I: 20 mM Tris-HCl pH 8.0, 1 mM MgCl2, 0.1 mM DTT, 12.5% glycerol, 50 mM NaCl, 0.4 mM EDTA, 37 C; EMSA with about 0.1 nM 32P-DNA and excess nonspecific competitor DNA; settings: protein: recombinant; (N-terminal pET45b or C-terminal pET24a His tag); chain copies: 2; label: 32P 5' end (EMSA); none (SEC); blunt
T4 sequence: T3 sequence

FadRSa [8] = target: T4, FadRSa; assay: X-ray crystallography; 3.29 A; three dimers with two duplexes; EMSA/DNase I: 20 mM Tris-HCl pH 8.0, 1 mM MgCl2, 0.1 mM DTT, 12.5% glycerol, 50 mM NaCl, 0.4 mM EDTA, 37 C; EMSA with about 0.1 nM 32P-DNA and excess nonspecific competitor DNA; settings: protein: recombinant; (N-terminal pET45b or C-terminal pET24a His tag); chain copies: 2; blunt
[9] = target: the molecule itself; assay: SEC; free purified FadRSa; apparent molecular weight from a calibrated column (Superdex 200 Increase 10/30 GL, 20 mM Na2HPO4 pH 7.4, 150 mM NaCl)
[10] = target: the molecule itself; assay: crystal structure; SeMet FadRSa, SAD, 2.4 Å, space group P21, two molecules per asymmetric unit; acyl-CoA in subunit B
[11] = target: the molecule itself; assay: native gel or EMSA; dimer with dimer on operator DNA: 45-bp 32P-labelled wildtype or mutated Saci_1123 operator probes; 20 mM Tris-HCl pH 8.0, 1 mM MgCl2, 0.1 mM DTT, 12.5% glycerol, 50 mM NaCl, 0.4 mM EDTA, 37 °C; 6% acrylamide gels
FadRSa [12] = target: T4, FadRSa; assay: EMSA; single complex B; EMSA/DNase I: 20 mM Tris-HCl pH 8.0, 1 mM MgCl2, 0.1 mM DTT, 12.5% glycerol, 50 mM NaCl, 0.4 mM EDTA, 37 C; EMSA with about 0.1 nM 32P-DNA and excess nonspecific competitor DNA; settings: protein: recombinant; (N-terminal pET45b or C-terminal pET24a His tag); chain copies: 2; label: 32P 5' end (EMSA); none (SEC); blunt
FadRSa [13] = target: T4, FadRSa; assay: EMSA; two complexes B1 and B2; EMSA/DNase I: 20 mM Tris-HCl pH 8.0, 1 mM MgCl2, 0.1 mM DTT, 12.5% glycerol, 50 mM NaCl, 0.4 mM EDTA, 37 C; EMSA with about 0.1 nM 32P-DNA and excess nonspecific competitor DNA; settings: protein: recombinant; (N-terminal pET45b or C-terminal pET24a His tag); chain copies: 2; label: 32P 5' end; blunt

T2 sequence (Q4J9S1 entry or part of it M101A): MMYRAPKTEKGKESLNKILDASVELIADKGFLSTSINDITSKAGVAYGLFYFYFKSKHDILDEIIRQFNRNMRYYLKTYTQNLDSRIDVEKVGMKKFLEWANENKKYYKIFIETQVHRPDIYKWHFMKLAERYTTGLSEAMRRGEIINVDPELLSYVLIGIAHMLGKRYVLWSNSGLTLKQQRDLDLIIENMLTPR

Molecule: CCCCCCCC/C=C\CCCCCCCC(=O)SCCNC(=O)CCNC(=O)[C@H](O)C(C)(C)COP(=O)(O)OP(=O)(O)OC[C@H]1O[C@@H](n2cnc3c(N)ncnc32)[C@H](O)[C@@H]1OP(=O)(O)O [oleoyl-CoA]
- EMSA, release of FadRSa from operator DNA (FadRSa [1]): addition of acetyl-CoA or hexanoyl-CoA does not affect sensitivity of the protein to oleoyl-CoA
- EMSA, ligand response of mutant (fraction of bound DNA) (FadRSa [2]): alanine mutation of the allosterically altered Met101 residue desensitizes the protein to oleoyl-CoA

Molecule: CGCCCTTTAGAGTGTGGAAGAAGTCAGTGGCACAGTTCTCTTCGTTTAAGCTTTTTTGTATCTCTTCATCAAAATTAAACTATTTGTTTTATTCATTATATCTTAATGTATTTGTGTAAATAATCTTCTTTATTCTAATCAATAAAATTATCGGAGAAGTTTATTATCGAGTTTACCTTTTAACTACAATGATAGTCGACTCAAAAATCAAGTAGTAAAGGTGGTGTGATGTATAGGGCTCC (double strand) [Saci_1107 (fadRSa) peak 2 fragment]
- binding [3]: binds
- binding [4]: binds
- binding [5]: binds

Molecule: CTACTTTCTAATATCACTATATTCACGCCTGGCAGACCCGACCTACTATGTTTAAACTTTTATAAAGTTGACATTATAATCAACTGATTATTTTAAAGGCAGTTCTAATTTTTCAAATAAACATAACACTAATCCTATAGATATAACTAATAAC (double strand) [Saci_1123 peak 4 footprint fragment]
- binding [6]: binds

Molecule: CTTCACTCCAAATCCTATTAGGAAAGCTGACACTGAACCGACCTTTTAACTACAATGATAGTCGACTCAAAAATCAAGTATAATATAGTCGAAATATGCCCTCTTGAATAAAACCATGAAATATAAATGAGTCTATTCTGATCTGATAAAGTTC (double strand) [Saci_1106 peak 1 fragment]
- binding [3]: binds
- binding [4]: binds

B1: fadRSa operator 45-bp (dsDNA)
DNA 1: ACTACAATGATAGTCGACTCAAAAATCAAGTAGTAAAGGTGGTGT
DNA 2: ACACCACCTTTACTACTTGATTTTTGAGTCGACTATCATTGTAGT
- binding result (FadRSa [7]): binds

B2: fadRSa operator 21-mer (dsDNA)
DNA 1: GTCGACTCAAAAATCAAGTAG
DNA 2: CTACTTGATTTTTGAGTCGAC
- binding result (FadRSa [8]): binds

B3: FadRSa (TetR-family transcriptional regulator encoded by Saci_1107), recombinant His-tagged (natural protein, Sulfolobus acidocaldarius, UniProt Q4J9S1 1-196, looked up)
chain: T3 sequence
notes: FadRSa, TetR-family regulator encoded by Saci_1107 of Sulfolobus acidocaldarius; the fadRSa coding region amplified from genomic DNA; An N-terminally His-tagged (pET45b) and a C-terminally His-tagged (pET24a) construct were both made; also called wildtype FadRSa; source: E. coli Rosetta (DE3), purified (heat treatment 80 °C, His GraviTrap IMAC)
- stoichiometry N [9]: 2

B4: SeMet FadRSa (selenomethionine-substituted FadRSa) (natural protein, Sulfolobus acidocaldarius, UniProt Q4J9S1 1-196, looked up)
chain: T3 sequence
modifications: selenomethionine-substituted
notes: FadRSa, TetR-family regulator encoded by Saci_1107 of Sulfolobus acidocaldarius; the fadRSa coding region in pET45b (BamHI/HindIII); One subunit (B) of the crystallised dimer carried an acyl-CoA, likely derived from E. coli; also called SeMet-substituted FadRSa; SeMet-derivated FadRSa
- binding result [10]: binds

B5: FadRSa N37A (natural protein, Sulfolobus acidocaldarius, UniProt Q4J9S1 1-196, looked up)
chain: T3 sequence with N37A
notes: FadRSa, encoded by Saci_1107 of Sulfolobus acidocaldarius; made by site-directed mutagenesis with pET24axfadRSaNdenull as template; also called N37A mutant FadRSa; source: E. coli Rosetta (DE3), purified (heat treatment 80 °C, His GraviTrap IMAC)
- binding result [11]: binds

B6: Saci_1123 operator 45-bp (dsDNA)
DNA 1: ACTACATAATCAGTTGATTATAATGTCAACTTTATAAAGTGGTGT
DNA 2: ACACCACTTTATAAAGTTGACATTATAATCAACTGATTATGTAGT
- binding result (FadRSa [12]): binds

B7: mutated Saci_1123 operator 45-bp (dsDNA)
DNA 1: B6 DNA 1 with A9G, A20C
DNA 2: B6 DNA 2 with T26G, T37C
- binding result (FadRSa [13]): binds
